3 substances from IntAct's records for PubMed 15933069 can be followed below.

Assay [1] addresses T1, kmt5a_human KMT5A (UniProt Q9NQR1).
T1 sequence: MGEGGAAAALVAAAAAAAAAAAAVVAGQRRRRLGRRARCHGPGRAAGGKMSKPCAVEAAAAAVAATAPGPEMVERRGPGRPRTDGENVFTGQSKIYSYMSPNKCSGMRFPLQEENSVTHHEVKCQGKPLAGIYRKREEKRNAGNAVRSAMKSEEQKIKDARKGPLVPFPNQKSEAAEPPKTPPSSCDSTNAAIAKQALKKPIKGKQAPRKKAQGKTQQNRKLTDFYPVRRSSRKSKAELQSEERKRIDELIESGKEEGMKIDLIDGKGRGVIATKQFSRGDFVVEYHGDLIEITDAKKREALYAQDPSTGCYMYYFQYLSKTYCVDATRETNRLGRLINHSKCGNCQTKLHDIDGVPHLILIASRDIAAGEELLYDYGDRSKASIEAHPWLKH

For assay [2], the target named is T1, kmt5a_human KMT5A. The source holds these as a separate data set.

For the substance “Histone H4 (Homo sapiens) (from UniProt P62805) H19A”, the “effect of a mutation on the interaction” value with kmt5a_human KMT5A [1] is listed as “decreasing interaction”.

For “Histone H4 (Homo sapiens) (from UniProt P62805) H19Y”, the “effect of a mutation on the interaction” value with kmt5a_human KMT5A [2] is “decreasing interaction”.

For “Histone H4 (Homo sapiens) (from UniProt P62805) H19Q”, in the assay with kmt5a_human KMT5A [2], the “effect of a mutation on the interaction” value is given as “decreasing interaction”.
